Laboratory results published in IntAct's records for PubMed 22151054.

B1: Myeloid leukemia factor 1 (Homo sapiens), P58340 (parent)
chain: MFRMLNSSFEDDPFFSESILAHRENMRQMIRSFSEPFGRDLLSISDGRGRAHNRRGHNDGEDSLTHTDVSSFQTMDQMVSNMRNYMQKLERNFGQLSVDPNGHSFCSSSVMTYSKIGDEPPKVFQASTQTRRAPGGIKETRKAMRDSDSGLEKMAIGHHIHDRAHVIKKSKNKKTGDEEVNQEFINMNESDAHAFDEEWQSEVLKYKPGRHNLGNTRMRSVGHENPGSRELKRREKPQQSPAIEHGRRSNVLGDKLHIKGSSVKSNKK

Variants of: B1
Settings: with 1433e_human YWHAE

| effect of a mutation on the interaction | Variant |
| --- | --- |
| decreasing interaction | F33A |
